According to publication PMC2726289:

Target: peptide from Dynamin1 proline-rich domain
Assay: not stated; monomeric GRAF1 SH3 domain with a peptide from the Dynamin1 proline-rich domain; method in Figure S2D or the supplement, not shown

Kd: 106 µM
B1: Monomeric GRAF1 SH3 domain (domain or fragment)
chain: TPFRKAKALYACKAEHDSELSFTAGTVFDNVHPSQEPGWLEGTLNGKTGLIPENYVEFL
